Data taken from the nanobody polyreactivity screen of Harvey et al. (2022).

Assay: yeast display, Sf9 membrane polyspecificity reagent, FACS + sequencing; frameworks hold sequencing errors
In short: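 Using colony PCR, genes from sorted yeast display clones were amplified, then sequenced on MiSeq at 2 × 250 and filtered by CDR length. The clones had been stained with 10% biotinylated, detergent-solubilized Sf9 membrane reagent for 1 hour at 4 °C and sorted by FACS into low and high (top ~1%) gates on anti-HA and streptavidin fluorescence. Polyreactivity labels come from the gate of origin.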

Row | Sequence | polyreactivity (PSR sort gate)
1 | QGQLEESGGGLVQAGGSLRLSCAASGSLFPSYVMGWYRQAPGKERELVAAIRTSGDRTYYADSVKGRFTNSRDNAKNTVYLQMNCLKPEDTAVYYCAAPYGHKSPRMYYWGQGTQVTVSS | high polyreactivity
2 | QGQLEESGGGLVQAGGSLRLSCAASGSTFTYYAMGWYRQATGKERELVAAISWSGTRTYYADSVKGRFTISRDNAKNTDYLQTNSLKPEDTAVYYCAADWRRSGVYTMGYWGQGTQVTVSS | high polyreactivity
3 | QGQLGESGGGLVQAGGSLRLSSPASGIIFWDYAMAWSRQSPGNEREFVAAINTSGGTTTYADSVKGRFTISRDNAKNTVYLQMNSLKPEDTAVYYCAADPWGYYSYAYYYWGQGTQVTVSS | low polyreactivity
4 | QGQLVDSGGGLVQAGGSLRLSCAASGFTVTRYAMGWYRTATGKERELVAAISWNSGSTYYADSVKGRFTISRDNAKNTVYLQMNSLKPEDTAVYYCAARDDQGYCYWGQGTQVTVSS | high polyreactivity
5 | QGQLVESCGGLVQAGGSLRFICAASGSNFFSYAMGCYRQAPWKERELVASISRRGGTTYYADSVKGRFTISRDNAKNTVYLHMNSLKPDDTAVYYCAAKLLYGGRYGYWGQGTQVTVSS | high polyreactivity
6 | QGQLVESCGGLVQAGGSLRLSCAASGSTFAAYTMGWYRQAPGQERELVAAIRFDGGRTYYADSVKGRFTSSRDNAKNTVYLPMNSLKPEDTAVYYCRAWQSYSYDYWGQGTQVTVSS | high polyreactivity
7 | QGQLVESGGALVQAGGSLRLSCAPSGRTFHGYAMGGYRQAPGKERELVARINWSDGRTYYADSVKGRFTISRDNAKNTVYLQMNSLKPEDTAVYYCAADKTVSYGPAWYYYWGQGTQVTVSS | low polyreactivity
8 | QGQLVESGGGFVQAGGSLRLSCAASGRTIEGNAMGWYRQPPWKERELVAGIRQSGDSTYYADSVKGRFTISRDNAKNTVYLQMNSLKAEETAVFYSNSRAFPFGTGVQGFGFGYWGQGTQVTVSS | low polyreactivity
9 | QGQLVESGGGIVQAGGSLRLSCSASGLTYGTNAKGLYRQAPRQERELVAAISRSGGTTYYADSVKWRFTISRDNAKNTVDLQMNSLKPEDTAVYYCATRPYSPWRHYFWGQGTQVTVSS | high polyreactivity
10 | QGQLVESGGGLFQAGGSLRLSCDDSGRTFSGYAMGWYRQAPGKEREFVAAITWSGGSTYYADSVKGRFSISRDNAKNTVYLQMNSLKPEDTAVYYCAARDYTRYGYGYWGQGTQVTVSS | high polyreactivity
11 | QGQLVESGGGLGQAGGSLRLSSAASGRTFGRYAMGWYRQAPGNERELVAAISYSTDSTYYADSVKGRFTISRDNAKNTVYLQMNSLKPEDTAVYYCATDSVNVGSYVGDKHDYWGQGSQVTVSS | low polyreactivity
12 | QGQLVESGGGLLQAGGSLRLISAASGSTFPIYAMGWYRHAPRKERELVAAITWRGGSRKYYADSVKGRYTISRDNAKNTVYLQMNCLKPEDTAVYYCAAEYKWPLYGYWGQGTQVTVSS | low polyreactivity
13 | QGQLVESGGGLVQAGCSLRLSCAASGSTFSYYAMGWYRQAPGKETELVAAIRKSGGSTYYADSVKGRFTISRDNAKNTVYLQMNSLKPEDTAVNSCVAVFSYYGWYSRYDYWGQGTQVTVSS | low polyreactivity
14 | QGQLVESGGGLVQAGGILRLRCAASGRMFQQYAMGWYRQAPGKERELVAVITYRAGRTHYADSVKGRFTISRDIAKNTVYLQMYRVKPDDTAVYYCAAGRYYAVWHSISGFDSWGQGTQETVSS | low polyreactivity
15 | QGQLVESGGGLVQAGGRLRLSCAASGFIFCIYAMAWYRTATGKQREFVAVSTYRGDTKYYADSVKGRFTISRDNAKNTVYLQMNSLKAEDTAVYSCAAYTVQKYGYWGQGTQVTVSS | low polyreactivity
16 | QGQLVESGGGLVQAGGSLRLICAASGFIFQANALGWYRQAPGQERELVAAITSSVGRTYYADSVKGRFTISRDNAKNTVYLQMNSLKPEYTEVYYCNAGGHLEMNYWGQGTQVTVSS | low polyreactivity
17 | QGQLVESGGGLVQAGGSLRLSCAACGSIFTYYTMGWYRQAPGKERELVAAIRWSAGRTYYADSVKGRFTISRDNAKNTVYLQMNSMKPEDTAVYYCAAAERLRHGLKFDYWGQGTQVTLSS | high polyreactivity
18 | QGQLVESGGGLVQAGGSLRLSCAASGFIFDNNAMGWYRQAPGKERELVAAISFSAGSTYYADSVKGRFTISRDNAKNTVYLQMNSLNPEDTAVYYCNADDWWGGYDYWGQGTQVTVSS | low polyreactivity
19 | QGQLVESGGGLVQAGGSLRLSCAASGFIFVPYAMGWYRQAPGKEREFVAAITASGGNTYYADSVKGRFTISRDNAKNTVYLQMNSLKPEYTAVYYCAAEISGSLESLDYWGQGTQVTVSS | low polyreactivity
20 | QGQLVESGGGLVQAGGSLRLSCAASGFSFLRYAMGWYRQAPGKERELVAAISTSGGSTSYADSVKGRFTISRDNAKNTVSLQKNSLKQEDTAVYYCNAVLYKVSISEYDYWGQGTQVTVSS | high polyreactivity
21 | QGQLVESGGGLVQAGGSLRLSCAASGFTFVGNAMGWYRQAPGKERELVATITSGGNTKYADSVKGRFTISRDNAKYTVYLQKNSLKPEDTAVYYCAAAKYNYRRFNYWGQGTQVTVSS | low polyreactivity
22 | QGQLVESGGGLVQAGGSLRLSCAASGFTISSYAMGWYRQATGKEREMVAAISSSGSRTSYADSVKVRFTISRDIAKNSVYFQMNSLKPEDTAVYYCAARPGDGGYYYWGQGTQVTVSS | high polyreactivity

Row | Sequence | polyreactivity (PSR sort gate)
23 | QGQLVESGGGLVQAGGSLRLSCAASGFTSSRNAMGWYIQEAGKERELVATISSGGDTYYADSVKGRFTISRDNAKNTVYLQMNSLKPEDTAVYYCNKDPLYAWGYDYWGQGTQVTVSS | low polyreactivity
24 | QGQLVESGGGLVQAGGSLRLSCAASGIIFEYYDMGWYRQAPGKERELVAAIDSGGSTYYADSVKGRFTISRDNAKNTVYLQMNSLKPEDTAVYYCAASRPPNTSNTGYGSWGQGTQVTVSS | low polyreactivity
25 | QGQLVESGGGLVQAGGSLRLSCAASGRIFGHYAMGWYRQAPGKERELVAAIRWRGGSTYYADSVKGRFTISRDNAKNTVYLQMNSLKPEDTAVYYCARTNNGRFRIVDTRYDYWGQGNQVTVSS | low polyreactivity
26 | QGQLVESGGGLVQAGGSLRLSCAASGRIFPGNVMGWYRPAPGKERELVAAISSSGGSTYYADSVKGRFTISRDNAKNTVYLQMNSLKPEDTAVYYCAADSSDWPYDYWGQGTQVTVSS | low polyreactivity
27 | QGQLVESGGGLVQAGGSLRLSCAASGRIFRGYAMGWYRQGPGNEREWVAAFSRRGGSTYYADSVKGRFTISRDNAKNTVYLQMNSLKPVDTAVYYCNADGVHYVAYAGGYWGQGTQVTVSS | high polyreactivity
28 | QGQLVESGGGLVQAGGSLRLSCAASGRTFNYYAMGWYREAPGKEWELGAAITNRGGSTYYADSVKGRFTISRDNAKNTVYLQMNSLKPEDTAVYYSAARGKYPSASGYTYSYGYWGQGTQVTVSS | high polyreactivity
29 | QGQLVESGGGLVQAGGSLRLSCAASGRTFTAYAMGWYRQAPRKERELVASISSGSSTYYADSVKGRFTISRDNAKYTVYLQMNSLKPEDTAVYYCAARDGYRYYKGKRMGYWGQGTQVTVSS | high polyreactivity
30 | QGQLVESGGGLVQAGGSLRLSCAASGRTFVDYDMGWYRQAAGKERELVADINSGGSTYYADSVKGRFTISRDNAKNTVYLQMNSLKREDSAVYYCAADDGWGYISSYDYEYWGQGTQVTVSS | high polyreactivity
31 | QGQLVESGGGLVQAGGSLRLSCAASGRTLYYYAMGWYRQAPGKERELVAAISGGGRTYYADSVKGRFTISRDNAKKTVDLQMNSLKPEDTAVYYCAARYRKSGLDNYWGQGTQVTVSS | high polyreactivity
32 | QGQLVESGGGLVQAGGSLRLSCAASGRTYDYNAMGWYRQAPWKEWELVAAISSGGSITHYADSVKGRFTISRDNAKNTVYFQMYSLKPEDTAVYYCNAAHLAHRFIGYTRWNYYYWGQGTQVTVTS | high polyreactivity
33 | QGQLVESGGGLVQAGGSLRLSCAASGSIFGNAMGWYIQAPGKEREFVAAISSSGSSTYYADSVKGRFTISRDNAKNTVYLQMNSLKPEDTAVYYCAARPPRVSYEYWGQGTQVTVSS | high polyreactivity
34 | QGQLVESGGGLVQAGGSLRLSCAASGSIFYYNDMGWYRQAPGKEWELVATITNGGGTNYADSVKGRFTISRDNAKYTVYLQMNSLKPEDTAVYYCAADLWPTVTASGDLIVKFDYWGQGTQVTVSS | low polyreactivity
35 | QGQLVESGGGLVQAGGSLRLSCAASGSISLYAMGWYRQAPGKERELVAAITKSGGSTYYADSVKGRFTISRDNAKNTVYLQMHSLKPEDTAVYYCNRGGGERKYNYWGQGTQVTVSS | high polyreactivity
36 | QGQLVESGGGLVQAGGSLRLSCAASGSTFDNYAMGWYRQAPGKERELVAAISSSSSRTYYADSVKGRFTISRDNAKNTVYLQMNSLKPADTAVYYCAKRRSIGYYYWGQGTQVTVSS | high polyreactivity
37 | QGQLVESGGGLVQAGGSLRLSCAASGSTFTIYVMGWYRQAPGKERELVAGISWSGGSTYYTDSVKGRFTISRDNAKNTVYLQMNSLKPEDTAVYYCNADAQWSVWSYIIDYDYWGQGTQVTVPS | low polyreactivity
38 | QGQLVESGGGLVQAGGSLRLSCAASGSTFYIYAMGWYRQAPGKERELVARISGSGGSTYYADSVKGRFTISRDNAKNTVYLQMNSLKPEDTAVYYCAADDIYKYYQYYAFPYYRYDYWGQGTQVTVSS | low polyreactivity
39 | QGQLVESGGGLVQAGGSLRLSSAASGRTFPSYAMGWYRQAPGKERELVAAITVSGGNTYYADSVKGRFTISRDNAKNTVYLQMNSLKAEDTAVYYCNTASYVSWYVHYYYWGLGTQVTVSS | low polyreactivity
40 | QGQLVESGGGLVQAGGSLRLSSAASGSIFFQNVMGWYRQAPGKERELVAAFSSSGDSTYYADSVKGRFTISRDNAKNTVYLQMISLKPEDTAVYYCAAEPEYVSGPYDYWGQGTQVTVSS | low polyreactivity
41 | QGQLVESGGGLVQAGGSLRLTCAASGLTFRRYTMGSYRQAPGNERELVAPISGSGGSTYYADSVKGRFTISRDSAKNTVYFQMNSLKPEDTAVSYCNAPYLHYVIVFTDYSQRYDYWGQGTQVTVSS | high polyreactivity
42 | QGQLVESGGGLVQEGGSLRLSCAASGRIFQNYAMGWYRQAPGKERELVATIDIGGSTKYADSVKGRFTISRDNAKNTVYLQMNSLKPEDTAVYYCNVPAFFYGYYRFDYWGQGTQVTVSS | high polyreactivity
43 | QGQLVESRGGLVQAGGSLRLSCAASGFNLAYYAMGWYRQAPGKERELVAAISIGSSTDYADSVKGRFTISRDNAKNTVYLQMNSLKPEDTAVFYCAKRGPQVWTFDYDSWGQGTQVTVSS | low polyreactivity
